Drawing on publication PMC9191346, this text covers rupture force of the DNA tether bridged by the oligomeric BLM for one substance.

Some results are limits rather than exact numbers.

This test addresses enhanced green fluorescent protein-labeled BLM (BLM-eGFP) (not stated (Gallus gallus or human BLM cloned)). Put plainly: optical tweezers with confocal fluorescence microscopy.

“enhanced green fluorescent protein-labeled BLM (BLM-eGFP) (domain or fragment)”: the rupture force of the DNA tether bridged by the oligomeric BLM is under 300 pN.
